From paper PMC5797668

Biological target: HA-M2R-RLuc8 (M2 muscarinic receptor) (UniProt P08172)
Experiment: FRET or BRET

Chain of UniProt P08172 (P08172 whole entry): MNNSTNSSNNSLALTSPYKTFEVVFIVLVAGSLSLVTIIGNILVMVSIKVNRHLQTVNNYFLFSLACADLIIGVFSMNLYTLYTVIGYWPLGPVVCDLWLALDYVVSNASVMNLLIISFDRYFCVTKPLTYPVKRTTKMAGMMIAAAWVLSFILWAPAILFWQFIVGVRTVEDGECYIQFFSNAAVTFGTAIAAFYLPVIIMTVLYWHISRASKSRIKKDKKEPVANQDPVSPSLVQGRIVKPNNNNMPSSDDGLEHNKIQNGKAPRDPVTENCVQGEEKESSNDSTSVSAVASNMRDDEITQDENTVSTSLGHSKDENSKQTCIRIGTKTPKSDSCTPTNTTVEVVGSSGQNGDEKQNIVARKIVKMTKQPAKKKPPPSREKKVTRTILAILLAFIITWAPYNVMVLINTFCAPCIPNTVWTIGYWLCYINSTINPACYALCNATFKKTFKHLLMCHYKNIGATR

fold increase of basal net BRET (against the A87V base mutant): > 3 fold
Substance: Venus-arrestin-3-Lys139Ile (on the Ala87Val base mutant) (natural protein)
